The values that follow come from patent publication US20090047282.

The test system of data set [1] is human Shh-N (cysteine residue at the 24th position up to the glycine residue at the 197th position of human Shh), E. coli recombinant, histidine tag excised with enterokinase.
In data set [2] the test system is Shh-(24-45), 22-mer peptide of amino acids 24 to 45 of human Shh, biotin at the C-terminal lysine.
Shh-(24-45), 22-mer peptide of amino acids 24 to 45 of human Shh, biotin at the C-terminal lysine, sequence (chain, as listed by the source): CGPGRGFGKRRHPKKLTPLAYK

Take “human HHAT (human hedgehog acyltransferase) with a C-terminal FLAG-Tag, crude enzyme solution from transfected HEK293 cells”: in data set [1], the “radioactivity of [14C] palmitic acid in the band of Shh-N after SDS-PAGE (HHAT activity)” value was “Only when the human HHAT crude enzyme solution and the Shh-N were reacted, a band having a radioactivity was recognized in the vicinity of the molecular weight of 21 kDa corresponding to the Shh-N”.

Turning to “human HHAT expressed with the Bac-to-Bac baculovirus system (HHAT enzyme solution of Example 5)”, in data set [2], the “radioactivity of [3H] palmitic acid added to the substrate peptide against the peptide's concentration (reaction time 1 hour)” value is “the activity was increased depending on the concentration (FIG. 3)” and the “radioactivity of [3H] palmitic acid added to the substrate peptide against the reaction time (10 uM peptide)” value is reported as “the activity was increased for 2 hours (FIG. 4)”.
